The values that follow come from patent US7470668B2, “Method of use of specific natriuretic peptide receptor c ligands, transgenic non-human mammals expressing specific natriuretic peptide receptor c antagonists and cells thereof” (Enobia Pharma Inc., priority 2005, dated 2008).

The subject of one test is OVX rat. As to the kind of experiment: Aged rat ovariectomy osteoporosis model, femoral BMD. The class given is in vivo. As to conditions: daily sub-cutaneous injections for 4 weeks, started 4 weeks post-OVX. An excerpt: The most widely used non-primate model for pre-clinical osteoporosis studies is the aged rat ovariectomy model (OVX rat). In this model, rapid trabecular bone loss occurs within the first month after ovariectomy (OVX) with an upregulation of both osteoblast and osteoclast activity resulting in increased bone turnover. However, similar to osteoporosis, the levels of osteoclast activity exceed those of osteoblast activity resulting in an imbalance in remodelling and consequently bone loss. […]
Thus, for the testing of potential therapeutic compounds in such a model one has two choices of approach. […] Efficacy can then be measured by assessing the ability of the compound to replace already lost bone. […]
The second approach was adopted to allow the Ostn's therapeutic potential through both anabolic and anti-resorptive efficacies to be assessed. […] Rats were left for a 4-week period following ovariectomy or sham-operation for bone loss to occur and at this point bone loss was assessed by X-ray and DEXA before proceeding with the experiment (groups 1+2). […]
FIG. 10 represents the femoral BMD (i.e. The amount of mineralized bone tissue in a given area, usually calculated as grams per square centimeter) as measured by Piximus™ on excised femurs fixed in 70% ethanol. […]

A further test addresses T1, human GC-B (Homo sapiens, UniProt P20594).
T1 construct: expressed in transfected cells; host or cells: HEK293, transient, pCDNA1.1 (CMV promoter)
T1 sequence (P20594 23-1047): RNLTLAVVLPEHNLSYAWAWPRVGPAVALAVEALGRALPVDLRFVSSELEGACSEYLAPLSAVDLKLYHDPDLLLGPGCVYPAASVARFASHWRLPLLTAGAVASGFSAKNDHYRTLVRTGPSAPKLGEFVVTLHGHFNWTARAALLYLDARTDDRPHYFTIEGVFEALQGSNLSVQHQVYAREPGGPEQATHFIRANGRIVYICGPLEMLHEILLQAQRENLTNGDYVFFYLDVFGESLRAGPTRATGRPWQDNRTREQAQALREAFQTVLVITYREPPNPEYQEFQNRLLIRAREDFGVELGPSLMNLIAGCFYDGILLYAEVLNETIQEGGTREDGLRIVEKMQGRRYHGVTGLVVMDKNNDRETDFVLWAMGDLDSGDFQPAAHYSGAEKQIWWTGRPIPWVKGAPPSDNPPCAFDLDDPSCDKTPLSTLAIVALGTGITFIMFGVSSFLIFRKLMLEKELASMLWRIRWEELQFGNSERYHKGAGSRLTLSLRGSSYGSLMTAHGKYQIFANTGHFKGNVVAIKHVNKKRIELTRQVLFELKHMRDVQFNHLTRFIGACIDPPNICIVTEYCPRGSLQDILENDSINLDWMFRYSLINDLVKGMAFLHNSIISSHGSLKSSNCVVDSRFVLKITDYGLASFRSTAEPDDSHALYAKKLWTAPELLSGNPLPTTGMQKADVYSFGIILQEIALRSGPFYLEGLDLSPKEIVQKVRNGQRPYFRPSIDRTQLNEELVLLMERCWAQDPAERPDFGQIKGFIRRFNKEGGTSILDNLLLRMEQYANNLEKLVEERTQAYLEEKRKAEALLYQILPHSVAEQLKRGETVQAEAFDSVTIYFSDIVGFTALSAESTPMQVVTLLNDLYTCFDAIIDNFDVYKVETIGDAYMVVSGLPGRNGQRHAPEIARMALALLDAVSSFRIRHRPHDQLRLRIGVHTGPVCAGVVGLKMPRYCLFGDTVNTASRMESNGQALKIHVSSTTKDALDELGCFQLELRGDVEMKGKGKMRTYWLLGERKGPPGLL
As to the kind of experiment: Intracellular cGMP in GC-B transfected HEK293 cells. Type of test: cell-based. The note with it: 10 nM peptide, 15 min.

B1: rhOstn[27-133]: N-terminal 6 histidine-tagged recombinant human Ostn amino acids 27-133 produced in E.coli, SEQ ID NO: 57 (protein)
chain: SVDVTTTEAFDSGVIDVQSTPTVREEKSATDLTAKLLLLDELVSLENDVIETKKKRSFSGFGSPLDRLSAGSVDHKGKQRKVVDHPKRRFGIPMDRIGRNRLSNSRG
modifications: N-terminal His6 tag; recombinant mature osteocrin
For B1, the “gain in femoral BMD over OVX-saline or OVX-mock treated rats” value in the test on OVX rat is recorded as 6%. For the same molecule, the “intracellular cGMP response via GC-B” value with human GC-B is listed as “failed to activate”.
